Data: publication PMC6135645

Molecular target: Light-Harvesting Complex II (LHCII), trimeric (spinach (endogenous in spinach leaves))
Experiment: native gel or EMSA; non-denaturing Clear Native PAGE (NativePAGE Novex 4-16% Bis-Tris), Coomassie staining; LHCII in α-DDM after sucrose gradient and size-exclusion chromatography

**Q.** Which stoichiometry N does the source give for “Light-Harvesting Complex II (LHCII), trimeric” here?
**A.** 3
